{"source": "patent US5459256A", "about": "“Lipophilic, aminohydrolase-activated prodrugs” (priority 1991, dated 1995)", "molecules": {"B1": {"name": "ADA: adenosine deaminase (adenosine aminohydrolase, EC 3.5.4.4) from calf intestinal mucosa (protein, UniProt P56658 2-363, looked up)", "Adenosine deaminase": "AQTPAFNKPKVELHVHLDGAIKPETILYYGRKRGIALPADTPEELQNIIGMDKPLSLPEFLAKFDYYMPAIAGCREAVKRIAYEFVEMKAKDGVVYVEVRYSPHLLANSKVEPIPWNQAEGDLTPDEVVSLVNQGLQEGERDFGVKVRSILCCMRHQPSWSSEVVELCKKYREQTVVAIDLAGDETIEGSSLFPGHVKAYAEAVKSGVHRTVHAGEVGSANVVKEAVDTLKTERLGHGYHTLEDATLYNRLRQENMHFEVCPWSSYLTGAWKPDTEHPVVRFKNDQVNYSLNTDDPLIFKSTLDTDYQMTKNEMGFTEEEFKRLNINAAKSSFLPEDEKKELLDLLYKAYGMPSPASAEQCL"}}, "key": {"CD4^+ ATH8 cells": {"tested_on": "CD4^+ ATH8 cells", "assay": "Toxicity on ATH8 target cells (% toxicity, dye exclusion)", "assay_type": "cell-based", "conditions": "additive alone, no test compound", "procedure": "(§1) HIV Cytopathic Effect Inhibition Assay.\nThe HIV cytopathic effect inhibition assay was performed as previously described. […] On day 8 in culture, the viable cells were counted by using the dye exclusion method. All compounds, including inactives, were evaluated a minimum of two times in separate experiments. Data reported in Table II are from representative tests. The % protection against the virus was determined by the following formula: 100 times [(the number of viable cells exposed to HIV-1 and cultured in the presence of the compound minus the number of viable cells exposed to HIV-1 and cultured in the absence of compound) divided by (the number of viable cells cultured alone minus the number of viable cells exposed to HIV-1 and cultured in the absence of the compound)]. The % toxicity of a compound on the target cells was determined by the following formula: 100 times [1 minus (the number of total viable cells cultured in the presence of the compound divided by the number of total viable cells cultured alone)]. Calculated percentages equal to or less than zero are expressed as 0%."}, "[1]": {"tested_on": "HIV-1/IIIB (CD4^+ ATH8 cells)", "assay": "HIV cytopathic effect inhibition assay in ATH8 cells (% protection)", "assay_type": "cell-based", "conditions": "additive alone, no test compound", "procedure": "as §1\nThe HIV cytopathic effect inhibition assay was performed as previously described. (Mitsuya, H. & Broder, S. Proc. Nat. Acad. Sci. USA 1986, 83, 1911) Briefly, 200,000 target CD4^+ ATH8 cells were exposed to cell-free HIV-1/IIIB at a dose of 43 (or 1087 for compound 1g) TCID50 (50% tissue culture infectious dose) for 1 h, resuspended in 2 ml of fresh culture media containing interleukin 2, and cultured at 37° C. with or without test compounds in 5% CO2 -containing humidified air. On day 8 in culture, the viable cells were counted by using the dye exclusion method. All compounds, including inactives, were evaluated a minimum of two times in separate experiments. […] The % protection against the virus was determined by the following formula: 100 times [(the number of viable cells exposed to HIV-1 and cultured in the presence of the compound minus the number of viable cells exposed to HIV-1 and cultured in the absence of compound) divided by (the number of viable cells cultured alone minus the number of viable cells exposed to HIV-1 and cultured in the absence of the compound)]. The % toxicity of a compound on the target cells was determined by the following formula: 100 times [1 minus (the number of total viable cells cultured in the presence of the compound divided by the number of total viable cells cultured alone)]. […]"}}, "data": [{"molecule": "B1", "values": [{"measurement": "toxicity / viability effect of additive alone (in words)", "setting": "CD4^+ ATH8 cells", "result": "neither influenced the viability"}, {"measurement": "protection by additive alone (in words)", "setting": "[1]", "result": "neither influenced the viability nor protected infected ATH8 cells"}]}]}
